From article doi:10.1101/2024.09.25.614871v2

Legend:
[1] = substrate: O=C(O)C[C@H](O)C(=O)O; assay: PK/LDH-coupled NADH consumption; format: biochemical, Homo sapiens; settings: 0.1 mM CoA, 7 mM MgCl2, pH 7.5, 30 °C
[2] = substrate: C=C(CC(=O)O)C(=O)O; assay: PK/LDH-coupled NADH consumption; format: biochemical, Homo sapiens; settings: 0.1 mM CoA, 7 mM MgCl2, pH 7.5, 30 °C
purified protein = substrate: CC(C)(COP(=O)(O)OP(=O)(O)OC[C@H]1O[C@@H](n2cnc3c(N)ncnc32)[C@H](O)[C@@H]1OP(=O)(O)O)[C@@H](O)C(=O)NCCC(=O)NCCSC(=O)C[C@H](O)C(=O)O; assay: purified protein; format: biochemical, Sus scrofa; settings: pH 7.5, 37 °C, 100 mM Tris

B1: SUCL (ADP-forming), SUCLG1:SUCLA2 complex (Homo sapiens) (protein)
chain 1: not shown
chain 2: LSLHEYMSMELLQEAGVSVPKGYVAKSPDEAYAIAKKLGSKDVVIKAQVLAGGRGKGTFESGLKGGVKIVFSPEEAKAVSSQMIGKKLFTKQTGEKGRICNQVLVCERKYPRREYYFAITMERSFQGPVLIGSSHGGVNIEDVAAESPEAIIKEPIDIEEGIKKEQALQLAQKMGFPPNIVESAAENMVKLYSLFLKYDATMIEINPMVEDSDGAVLCMDAKINFDSNSAYRQKKIFDLQDWTQEDERDKDAAKANLNYIGLDGNIGCLVNGAGLAMATMDIIKLHGGTPANFLDVGGGATVHQVTEAFKLITSDKKVLAILVNIFGGIMRCDVIAQGIVMAVKDLEIKIPVVVRLQGTRVDDAKALIADSGLKILACDDLDEAARMVVKLSEIVTLAKQAHVDVKFQLPI
Work on B1 yielded a Km ([1]; 0.6 mM ATP) of 21900 ± 5800 µM, a kcat ([1]; 0.6 mM ATP) of 0.06 ± 0.01 s⁻¹ and a Km ([2]; 0.6 mM ATP) of 19100 ± 2500 µM. The kcat ([2]; 0.6 mM ATP) was 0.65 ± 0.08 s⁻¹.

B2: citrate synthase (CS) (Sus scrofa) (protein)
chain: ASSTNLKDILADLIPKEQARIKTFRQQHGNTVVGQITVDMMYGGMRGMKGLVYETSVLDPDEGIRFRGYSIPECQKMLPKAKGGEEPLPEGLFWLLVTGQIPTEEQVSWLSKEWAKRAALPSHVVTMLDNFPTNLHPMSQLSAAITALNSESNFARAYAEGIHRTKYWELIYEDCMDLIAKLPCVAAKIYRNLYREGSSIGAIDSKLDWSHNFTNMLGYTDAQFTELMRLYLTIHSDHEGGNVSAHTSHLVGSALSDPYLSFAAAMNGLAGPLHGLANQEVLVWLTQLQKEVGKDVSDEKLRDYIWNTLNSGRVVPGYGHAVLRKTDPRYTCQREFALKHLPHDPMFKLVAQLYKIVPNVLLEQGKAKNPWPNVDAHSGVLLQYYGMTEMNYYTVLFGVSRALGVLAQLIWSRALGFPLERPKSMSTDGLIKLVDSK
B2 showed a Km (purified protein) of 106 µM.

B3: SUCL (GDP-forming), SUCLG1:SUCLG2 complex (Homo sapiens) (protein)
chain 1: not shown
chain 2: LNLQEYQSKKLMSDNGVRVQRFFVADTANEALEAAKRLNAKEIVLKAQILAGGRGKGVFNSGLKGGVHLTKDPNVVGQLAKQMIGYNLATKQTPKEGVKVNKVMVAEALDISRETYLAILMDRSCNGPVLVGSPQGGVDIEEVAASNPELIFKEQIDIFEGIKDSQAQRMAENLGFVGPLKSQAADQITKLYNLFLKIDATQVEVNPFGETPEGQVVCFDAKINFDDNAEFRQKDIFAMDDKSENEPIENEAAKYDLKYIGLDGNIACFVNGAGLAMATCDIIFLNGGKPANFLDLGGGVKEAQVYQAFKLLTADPKVEAILVNIFGGIVNCAIIANGITKACRELELKVPLVVRLEGTNVQEAQKILNNSGLPITSAIDLED
B3 showed a Km ([1]; 0.6 mM GTP) of 1900 ± 300 µM, a kcat ([1]; 0.6 mM GTP) of 0.18 ± 0.02 s⁻¹ and a Km ([2]; 0.6 mM GTP) of 1500 ± 200 µM. For the same protein, the kcat ([2]; 0.6 mM GTP) was 5.3 ± 0.2 s⁻¹.
